First the molecules themselves.
B1: CE115HA000 N54D (antibody, name in Kabat numbering, V domains shown)
VH: QVQLVESGGGVVQPGRSLRLSCAASGFTFSNAWMHWVRQAPGKGLEWVAQIKAKSNDYATYYAESVKGRFTISRDDSKNSLYLQMNSLKTEDTAVYYCRYVHYGAYYGVDAWGQGTTVTVSS
VL: DIVMTQSPLSLPVTPGEPASISCRSSQSLVHSNRNTYLHWYQQKPGQAPRLLIYKVSNRFSGVPDRFSGSGSGTDFTLKISRVEAEDVGVYYCGQGTQVPYTFGQGTKLEIK
B2: CE115HA000 Q50Y (antibody, name in Kabat numbering, V domains shown)
VH: QVQLVESGGGVVQPGRSLRLSCAASGFTFSNAWMHWVRQAPGKGLEWVAYIKAKSNNYATYYAESVKGRFTISRDDSKNSLYLQMNSLKTEDTAVYYCRYVHYGAYYGVDAWGQGTTVTVSS
VL: DIVMTQSPLSLPVTPGEPASISCRSSQSLVHSNRNTYLHWYQQKPGQAPRLLIYKVSNRFSGVPDRFSGSGSGTDFTLKISRVEAEDVGVYYCGQGTQVPYTFGQGTKLEIK
B3: CE115HA000 R16E (antibody, name in Kabat numbering, V domains shown)
VH: QVQLVESGGGVVQPGESLRLSCAASGFTFSNAWMHWVRQAPGKGLEWVAQIKAKSNNYATYYAESVKGRFTISRDDSKNSLYLQMNSLKTEDTAVYYCRYVHYGAYYGVDAWGQGTTVTVSS
VL: DIVMTQSPLSLPVTPGEPASISCRSSQSLVHSNRNTYLHWYQQKPGQAPRLLIYKVSNRFSGVPDRFSGSGSGTDFTLKISRVEAEDVGVYYCGQGTQVPYTFGQGTKLEIK
B4: CE115HA000 N54F (antibody, name in Kabat numbering, V domains shown)
VH: QVQLVESGGGVVQPGRSLRLSCAASGFTFSNAWMHWVRQAPGKGLEWVAQIKAKSNFYATYYAESVKGRFTISRDDSKNSLYLQMNSLKTEDTAVYYCRYVHYGAYYGVDAWGQGTTVTVSS
VL: DIVMTQSPLSLPVTPGEPASISCRSSQSLVHSNRNTYLHWYQQKPGQAPRLLIYKVSNRFSGVPDRFSGSGSGTDFTLKISRVEAEDVGVYYCGQGTQVPYTFGQGTKLEIK
B5: CE115HA000 R16Q (antibody, name in Kabat numbering, V domains shown)
VH: QVQLVESGGGVVQPGQSLRLSCAASGFTFSNAWMHWVRQAPGKGLEWVAQIKAKSNNYATYYAESVKGRFTISRDDSKNSLYLQMNSLKTEDTAVYYCRYVHYGAYYGVDAWGQGTTVTVSS
VL: DIVMTQSPLSLPVTPGEPASISCRSSQSLVHSNRNTYLHWYQQKPGQAPRLLIYKVSNRFSGVPDRFSGSGSGTDFTLKISRVEAEDVGVYYCGQGTQVPYTFGQGTKLEIK
B6: CE115HA000 R19T (antibody, name in Kabat numbering, V domains shown)
VH: QVQLVESGGGVVQPGRSLTLSCAASGFTFSNAWMHWVRQAPGKGLEWVAQIKAKSNNYATYYAESVKGRFTISRDDSKNSLYLQMNSLKTEDTAVYYCRYVHYGAYYGVDAWGQGTTVTVSS
VL: DIVMTQSPLSLPVTPGEPASISCRSSQSLVHSNRNTYLHWYQQKPGQAPRLLIYKVSNRFSGVPDRFSGSGSGTDFTLKISRVEAEDVGVYYCGQGTQVPYTFGQGTKLEIK
B7: CE115HA000 Q50S (antibody, name in Kabat numbering, V domains shown)
VH: QVQLVESGGGVVQPGRSLRLSCAASGFTFSNAWMHWVRQAPGKGLEWVASIKAKSNNYATYYAESVKGRFTISRDDSKNSLYLQMNSLKTEDTAVYYCRYVHYGAYYGVDAWGQGTTVTVSS
VL: DIVMTQSPLSLPVTPGEPASISCRSSQSLVHSNRNTYLHWYQQKPGQAPRLLIYKVSNRFSGVPDRFSGSGSGTDFTLKISRVEAEDVGVYYCGQGTQVPYTFGQGTKLEIK
B8: CE115HA000 N54K (antibody, name in Kabat numbering, V domains shown)
VH: QVQLVESGGGVVQPGRSLRLSCAASGFTFSNAWMHWVRQAPGKGLEWVAQIKAKSNKYATYYAESVKGRFTISRDDSKNSLYLQMNSLKTEDTAVYYCRYVHYGAYYGVDAWGQGTTVTVSS
VL: DIVMTQSPLSLPVTPGEPASISCRSSQSLVHSNRNTYLHWYQQKPGQAPRLLIYKVSNRFSGVPDRFSGSGSGTDFTLKISRVEAEDVGVYYCGQGTQVPYTFGQGTKLEIK
B9: CE115HA000 S30D (antibody, name in Kabat numbering, V domains shown)
VH: QVQLVESGGGVVQPGRSLRLSCAASGFTFDNAWMHWVRQAPGKGLEWVAQIKAKSNNYATYYAESVKGRFTISRDDSKNSLYLQMNSLKTEDTAVYYCRYVHYGAYYGVDAWGQGTTVTVSS
VL: DIVMTQSPLSLPVTPGEPASISCRSSQSLVHSNRNTYLHWYQQKPGQAPRLLIYKVSNRFSGVPDRFSGSGSGTDFTLKISRVEAEDVGVYYCGQGTQVPYTFGQGTKLEIK
B10: CE115HA000 Q50L (antibody, name in Kabat numbering, V domains shown)
VH: QVQLVESGGGVVQPGRSLRLSCAASGFTFSNAWMHWVRQAPGKGLEWVALIKAKSNNYATYYAESVKGRFTISRDDSKNSLYLQMNSLKTEDTAVYYCRYVHYGAYYGVDAWGQGTTVTVSS
VL: DIVMTQSPLSLPVTPGEPASISCRSSQSLVHSNRNTYLHWYQQKPGQAPRLLIYKVSNRFSGVPDRFSGSGSGTDFTLKISRVEAEDVGVYYCGQGTQVPYTFGQGTKLEIK
B11: CE115HA000 Q50I (antibody, name in Kabat numbering, V domains shown)
VH: QVQLVESGGGVVQPGRSLRLSCAASGFTFSNAWMHWVRQAPGKGLEWVAIIKAKSNNYATYYAESVKGRFTISRDDSKNSLYLQMNSLKTEDTAVYYCRYVHYGAYYGVDAWGQGTTVTVSS
VL: DIVMTQSPLSLPVTPGEPASISCRSSQSLVHSNRNTYLHWYQQKPGQAPRLLIYKVSNRFSGVPDRFSGSGSGTDFTLKISRVEAEDVGVYYCGQGTQVPYTFGQGTKLEIK
B12: CE115HA000 N54S (antibody, name in Kabat numbering, V domains shown)
VH: QVQLVESGGGVVQPGRSLRLSCAASGFTFSNAWMHWVRQAPGKGLEWVAQIKAKSNSYATYYAESVKGRFTISRDDSKNSLYLQMNSLKTEDTAVYYCRYVHYGAYYGVDAWGQGTTVTVSS
VL: DIVMTQSPLSLPVTPGEPASISCRSSQSLVHSNRNTYLHWYQQKPGQAPRLLIYKVSNRFSGVPDRFSGSGSGTDFTLKISRVEAEDVGVYYCGQGTQVPYTFGQGTKLEIK
B13: CE115HA000 N54G (antibody, name in Kabat numbering, V domains shown)
VH: QVQLVESGGGVVQPGRSLRLSCAASGFTFSNAWMHWVRQAPGKGLEWVAQIKAKSNGYATYYAESVKGRFTISRDDSKNSLYLQMNSLKTEDTAVYYCRYVHYGAYYGVDAWGQGTTVTVSS
VL: DIVMTQSPLSLPVTPGEPASISCRSSQSLVHSNRNTYLHWYQQKPGQAPRLLIYKVSNRFSGVPDRFSGSGSGTDFTLKISRVEAEDVGVYYCGQGTQVPYTFGQGTKLEIK
B14: CE115HA000 N54Q (antibody, name in Kabat numbering, V domains shown)
VH: QVQLVESGGGVVQPGRSLRLSCAASGFTFSNAWMHWVRQAPGKGLEWVAQIKAKSNQYATYYAESVKGRFTISRDDSKNSLYLQMNSLKTEDTAVYYCRYVHYGAYYGVDAWGQGTTVTVSS
VL: DIVMTQSPLSLPVTPGEPASISCRSSQSLVHSNRNTYLHWYQQKPGQAPRLLIYKVSNRFSGVPDRFSGSGSGTDFTLKISRVEAEDVGVYYCGQGTQVPYTFGQGTKLEIK
B15: CE115HA000 Q50A (antibody, name in Kabat numbering, V domains shown)
VH: QVQLVESGGGVVQPGRSLRLSCAASGFTFSNAWMHWVRQAPGKGLEWVAAIKAKSNNYATYYAESVKGRFTISRDDSKNSLYLQMNSLKTEDTAVYYCRYVHYGAYYGVDAWGQGTTVTVSS
VL: DIVMTQSPLSLPVTPGEPASISCRSSQSLVHSNRNTYLHWYQQKPGQAPRLLIYKVSNRFSGVPDRFSGSGSGTDFTLKISRVEAEDVGVYYCGQGTQVPYTFGQGTKLEIK
B16: CE115HA000 Q50D (antibody, name in Kabat numbering, V domains shown)
VH: QVQLVESGGGVVQPGRSLRLSCAASGFTFSNAWMHWVRQAPGKGLEWVADIKAKSNNYATYYAESVKGRFTISRDDSKNSLYLQMNSLKTEDTAVYYCRYVHYGAYYGVDAWGQGTTVTVSS
VL: DIVMTQSPLSLPVTPGEPASISCRSSQSLVHSNRNTYLHWYQQKPGQAPRLLIYKVSNRFSGVPDRFSGSGSGTDFTLKISRVEAEDVGVYYCGQGTQVPYTFGQGTKLEIK
B17: CE115HA000 N54L (antibody, name in Kabat numbering, V domains shown)
VH: QVQLVESGGGVVQPGRSLRLSCAASGFTFSNAWMHWVRQAPGKGLEWVAQIKAKSNLYATYYAESVKGRFTISRDDSKNSLYLQMNSLKTEDTAVYYCRYVHYGAYYGVDAWGQGTTVTVSS
VL: DIVMTQSPLSLPVTPGEPASISCRSSQSLVHSNRNTYLHWYQQKPGQAPRLLIYKVSNRFSGVPDRFSGSGSGTDFTLKISRVEAEDVGVYYCGQGTQVPYTFGQGTKLEIK
B18: CE115HA000 Q50E (antibody, name in Kabat numbering, V domains shown)
VH: QVQLVESGGGVVQPGRSLRLSCAASGFTFSNAWMHWVRQAPGKGLEWVAEIKAKSNNYATYYAESVKGRFTISRDDSKNSLYLQMNSLKTEDTAVYYCRYVHYGAYYGVDAWGQGTTVTVSS
VL: DIVMTQSPLSLPVTPGEPASISCRSSQSLVHSNRNTYLHWYQQKPGQAPRLLIYKVSNRFSGVPDRFSGSGSGTDFTLKISRVEAEDVGVYYCGQGTQVPYTFGQGTKLEIK
B19: CE115HA000 Q105E (antibody, name in Kabat numbering, V domains shown)
VH: QVQLVESGGGVVQPGRSLRLSCAASGFTFSNAWMHWVRQAPGKGLEWVAQIKAKSNNYATYYAESVKGRFTISRDDSKNSLYLQMNSLKTEDTAVYYCRYVHYGAYYGVDAWGEGTTVTVSS
VL: DIVMTQSPLSLPVTPGEPASISCRSSQSLVHSNRNTYLHWYQQKPGQAPRLLIYKVSNRFSGVPDRFSGSGSGTDFTLKISRVEAEDVGVYYCGQGTQVPYTFGQGTKLEIK
B20: CE115HA000 Q50K (antibody, name in Kabat numbering, V domains shown)
VH: QVQLVESGGGVVQPGRSLRLSCAASGFTFSNAWMHWVRQAPGKGLEWVAKIKAKSNNYATYYAESVKGRFTISRDDSKNSLYLQMNSLKTEDTAVYYCRYVHYGAYYGVDAWGQGTTVTVSS
VL: DIVMTQSPLSLPVTPGEPASISCRSSQSLVHSNRNTYLHWYQQKPGQAPRLLIYKVSNRFSGVPDRFSGSGSGTDFTLKISRVEAEDVGVYYCGQGTQVPYTFGQGTKLEIK
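Note: biacore SPR with antibody variants flowed as analyte over amine-coupled CD3ε homodimer on a CM chip, bound amount of each single-residue H chain variant over that of parent.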

The assay deals with T1, CD3ε homodimer protein (human, UniProt P07766 23-126, limits assumed, sulfo-tag or biotin label in some ECL assays).
T1 construct: also called human CD3ε homodimer protein; CD3 (CD3ε)
T1 sequence (P07766 23-126 limits assumed): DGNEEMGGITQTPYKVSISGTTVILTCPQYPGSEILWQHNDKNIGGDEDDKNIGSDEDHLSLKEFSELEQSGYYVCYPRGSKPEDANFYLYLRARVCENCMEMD
The experiment in a line: SPR, CD3ε homodimer on chip. (Surface plasmon resonance follows binding to a sensor surface in real time, without labels.)
Description: An appropriate amount of CD3ε homodimer protein was immobilized onto Sensor chip CM4 (GE Healthcare Japan Corp.) by the amine coupling method. Then, the antibody having an appropriate concentration was injected thereto as an analyte and allowed to interact with the CD3ε homodimer protein on the sensor chip. Then, the sensor chip was regenerated by the injection of 10 mmol/L glycine-HCl (pH 1.5). The assay was conducted at 25° C., and HBS-EP+ (GE Healthcare Japan Corp.) was used as a running buffer. […] Each parameter was calculated using Biacore T200 Evaluation Software (GE Healthcare Japan Corp.).
Specifically, when the amount of the antibody comprising CE115HA000 bound was defined as X and the amount of the H chain one-amino acid altered form bound was defined as Y, a value of Z (ratio of amounts bound)=Y/X was used.
For B1, the “ratio of amounts bound vs CE115HA000” value came out at 0.62.
Take B2: the “ratio of amounts bound vs CE115HA000” value amounted to 0.25.
As for B3, the “ratio of amounts bound vs CE115HA000” value was found to be 0.88.
In the case of B4, the “ratio of amounts bound vs CE115HA000” value came to 1.12.
With B5, the “ratio of amounts bound vs CE115HA000” value came out at 0.9.
In the case of B6, the “ratio of amounts bound vs CE115HA000” value is 0.8.
Regarding B7, the “ratio of amounts bound vs CE115HA000” value turned out to be 0.24.
With B8, the “ratio of amounts bound vs CE115HA000” value is 1.2.
B9: the “ratio of amounts bound vs CE115HA000” value stood at 0.86.
In the case of B10, the “ratio of amounts bound vs CE115HA000” value came out at 0.23.
Take B11: the “ratio of amounts bound vs CE115HA000” value was found to be 0.4.
With B12, the “ratio of amounts bound vs CE115HA000” value amounted to 0.84.
As to B13, the “ratio of amounts bound vs CE115HA000” value came out at 0.98.
Consider B14, for which the “ratio of amounts bound vs CE115HA000” value was determined as 0.84.
Take B15: the “ratio of amounts bound vs CE115HA000” value was determined as 0.24.
For B16, the “ratio of amounts bound vs CE115HA000” value was 0.27.
In the case of B17, the “ratio of amounts bound vs CE115HA000” value turned out to be 0.94.
Then B18, with 0.26.
For the molecule B19, the “ratio of amounts bound vs CE115HA000” value turned out to be 0.94.
Then B20, with 0.33.

The values are drawn from US20220040297A1 (Chugai, published 2022).
